Results taken from patent US20230265179A1 (TWIST BIOSCIENCE, published 2023).

T1: CD40L over-expressed on Expi293 cells (UniProt P29965 1-261, limits assumed)
T1 construct: whole, on cells; also called cytokine over-expressing Expi293 cells
T1 sequence (looked up): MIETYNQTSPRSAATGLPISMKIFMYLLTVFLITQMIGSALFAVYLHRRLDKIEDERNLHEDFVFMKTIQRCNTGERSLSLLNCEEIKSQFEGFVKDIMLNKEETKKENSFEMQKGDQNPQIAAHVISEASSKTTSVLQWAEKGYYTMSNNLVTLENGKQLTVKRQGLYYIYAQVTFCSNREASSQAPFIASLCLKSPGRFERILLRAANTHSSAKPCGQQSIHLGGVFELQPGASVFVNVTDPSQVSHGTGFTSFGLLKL

T2: CD40L (UniProt P29965 113-261, limits assumed)
T2 construct: SPR analyte
T2 sequence (looked up): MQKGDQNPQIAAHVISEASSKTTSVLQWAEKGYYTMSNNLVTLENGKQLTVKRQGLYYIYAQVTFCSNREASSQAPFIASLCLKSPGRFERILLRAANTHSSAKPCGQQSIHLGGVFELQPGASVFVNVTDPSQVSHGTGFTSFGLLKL

T3: IL1RL1 over-expressed on Expi293 cells (UniProt Q01638 19-556, limits assumed)
T3 construct: whole, on cells; Target of the flow cytometry MFI ratio (over-expressing cells over parent cells); also called cytokine over-expressing Expi293 cells
T3 sequence (looked up): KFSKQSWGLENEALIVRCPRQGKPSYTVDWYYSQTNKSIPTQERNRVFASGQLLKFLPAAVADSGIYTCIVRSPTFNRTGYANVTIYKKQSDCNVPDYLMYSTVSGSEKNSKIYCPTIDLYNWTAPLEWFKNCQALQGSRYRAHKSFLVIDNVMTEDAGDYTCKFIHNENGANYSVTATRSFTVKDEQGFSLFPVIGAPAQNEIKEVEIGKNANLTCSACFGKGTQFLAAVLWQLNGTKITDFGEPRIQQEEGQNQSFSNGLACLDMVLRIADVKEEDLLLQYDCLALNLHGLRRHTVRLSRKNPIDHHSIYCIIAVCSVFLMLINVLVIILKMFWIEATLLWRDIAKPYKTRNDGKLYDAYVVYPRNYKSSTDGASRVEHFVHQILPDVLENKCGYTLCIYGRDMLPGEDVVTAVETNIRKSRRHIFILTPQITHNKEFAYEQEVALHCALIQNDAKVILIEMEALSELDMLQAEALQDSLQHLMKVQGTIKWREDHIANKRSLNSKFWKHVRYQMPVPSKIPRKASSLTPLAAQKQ


Key:
[1] = target: T1, CD40L over-expressed on Expi293 cells; assay: flow cytometry, 100 nM antibody, CD40L-Expi293 vs parent Expi293 cells;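 also: ratio is the mean fluorescence intensity on CD40L-overexpressing Expi293 cells divided by the mean fluorescence intensity on parental Expi293 cells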
Procedure: (§1) All incubations and washes were in buffer containing PBS+1% BSA. MFI Ratio is defined by the mean fluorescence intensity (MFI) of the cytokine over-expressing Expi293 cell over the Expi293 parent cell. […] EC50 was calculated in GraphPad Prism.

CD40L = target: T2, CD40L; assay: SPR (Carterra LSA), antibody amine-coupled, 1:1 model
Procedure: SPR experiments were performed on a Carterra LSA SPR biosensor equipped with a HC30M chip at 25° C. in HBS-TE. Antibodies were diluted to 10 μg/mL and amine-coupled to the sensor chip by EDC/NHS activation, followed by ethanolamine HCl quenching. Increasing concentrations of analyte were flowed over the sensor chip in HBS-TE with 0.5 mg/mL BSA with 5-minute association and 15-minute dissociation. Following each injection cycle the surface was regenerated with 2× 30-second injections of IgG elution buffer (Thermo). Data were analyzed in Carterra's Kinetics Tool software with 1:1 binding model.

[2] = target: T3, IL1RL1 over-expressed on Expi293 cells; assay: flow cytometry, 100 nM antibody, over-expressing Expi293 / parent cells
Procedure: as §1

| Binder | 100 nM FACS (MFI Ratio) [1] | Kd (CD40L) | koff (CD40L) | kon (CD40L) | 100 nM FACS (MFI Ratio) [2] |
| --- | --- | --- | --- | --- | --- |
| CD40L-28 (VHH) VHH: EVQLVESGGGLVQPGGSLRLSCAASGVTVDYSGMGWFRQAPGKEREFVSAISSYSGNTYYADSVKGRFTISADNSKNTAYLQMNSLKPEDTAVYYCAAAYGGGLYRDPRSYDWGQGTLVTVSS | 41.9 ratio | 2.87 nM | 0.000445 s⁻¹ | 155000 M⁻¹ s⁻¹ |  |
| CD40L-20 (VHH) VHH: EVQLVESGGGLVQPGGSLRLSCAASGVITLDSNAMGWFRQAPGKEREFVAAITWDGGYTRYADSVKGRFTISADNSKNTAYLQMNSLKPEDTAVYYCAAEATFPTWNRGSEADYDWGQGTLVTVSS | 24.6 ratio | 1.25 nM | 0.000271 s⁻¹ | 217000 M⁻¹ s⁻¹ |  |
| CD40L-24 (VHH) VHH: EVQLVESGGGLVQPGGSLRLSCAASGGAFSVYAMGWFRQAPGKEREFLASISGSGGSTYYADSVKGRFTISADNSKNTAYLQMNSLKPEDTAVYYCARDGGTYGMDVWGQGTLVTVSS | 42.7 ratio | 5.74 nM | 0.000824 s⁻¹ | 143000 M⁻¹ s⁻¹ |  |
| CD40L-36 (VHH) VHH: EVQLVESGGGLVQPGGSLRLSCAASGFSLDDYAMGWFRQAPGKEREFVASVNWSGKDTYYADSVKGRFTISADNSKNTAYLQMNSLKPEDTAVYYCARDGGTYGMDVWGQGTLVTVSS | 59.2 ratio | 0.819 nM | 0.000353 s⁻¹ | 431000 M⁻¹ s⁻¹ |  |
| CD40L-33 (VHH) VHH: EVQLVESGGGLVQPGGSLRLSCAASGNIFINNAMGWFRQAPGKEREFVASIEWDGGGAYYADSVKGRFTISADNSKNTAYLQMNSLKPEDTAVYYCARDGGTYGMDVWGQGTLVTVSS | 74.1 ratio | 2.63 nM | 0.000546 s⁻¹ | 208000 M⁻¹ s⁻¹ |  |
| CD40L-41 (VHH) VHH: EVQLVESGGGLVQPGGSLRLSCAASGSTFSKHHAMGWFRQAPGKERELVASISSDNYTVYADSVKGRFTISADNSKNTAYLQMNSLKPEDTAVYYCAREAANYREPPLWGQGTLVTVSS | 15.5 ratio | 8.47 nM | 0.000685 s⁻¹ | 80800 M⁻¹ s⁻¹ |  |
| CD40L-34 (VHH) VHH: EVQLVESGGGLVQPGGSLRLSCAASGRTISNAAMGWFRQAPGKEREFVAAISFRGDSAIYADSVKGRFTISADNSKNTAYLQMNSLKPEDTAVYYCARDAAGDYYYNLDVWGQGTLVTVSS | 76.7 ratio | 9.87 nM | 0.000637 s⁻¹ | 64500 M⁻¹ s⁻¹ |  |
| CD40L-39 (VHH) VHH: EVQLVESGGGLVQPGGSLRLSCAASGGTLDDYVMGWFRQAPGKEREFVASIGRSGNSAVNTDYADSVKGRFTISADNSKNTAYLQMNSLKPEDTAVYYCAREPYSGTYYPRYWGQGTLVTVSS | 114 ratio | 0.194 nM | 6.25e-05 s⁻¹ | 322000 M⁻¹ s⁻¹ |  |
| CD40L-35 (VHH) VHH: EVQLVESGGGLVQPGGSLRLSCAASGLTFSSYWMGWFRQAPGKERELVASITDGGSTNYADSVKGRFTISADNSKNTAYLQMNSLKPEDTAVYYCAVQVNGIWAWGQGTLVTVSS | 29.5 ratio | ≤ 0.0842 nM | ≤ 1e-05 s⁻¹ | 119000 M⁻¹ s⁻¹ |  |
| CD40L-47 (VHH) VHH: EVQLVESGGGLVQPGGSLRLSCAASGRTLVNYDMGWFRQAPGKEREFVAAISMSGEDTIYADSVKGRFTISADNSKNTAYLQMNSLKPEDTAVYYCTTGGGTRDYWGQGTLVTVSS | 41.8 ratio | 2.38 nM | 0.000536 s⁻¹ | 225000 M⁻¹ s⁻¹ |  |
| CD40L-48 (VHH) VHH: EVQLVESGGGLVQPGGSLRLSCAASGFTFSRYEMGWFRQAPGKEREFVAAVTEGGTTSYADSVKGRFTISADNSKNTAYLQMNSLKPEDTAVYYCAAESLGRWWGQGTLVTVSS | 68.4 ratio | 8.48 nM | 0.000998 s⁻¹ | 118000 M⁻¹ s⁻¹ |  |
| CD40L-21 (VHH) VHH: EVQLVESGGGLVQPGGSLRLSCAASGRIFSTYFMGWFRQAPGKEREFVAASYTGGSGGSTVYADSVKGRFTISADNSKNTAYLQMNSLKPEDTAVYYCAAWLNGGNRWGQGTLVTVSS | 99.2 ratio | 53.8 nM | 0.00083 s⁻¹ | 15400 M⁻¹ s⁻¹ |  |
| CD40L-25 (VHH) VHH: EVQLVESGGGLVQPGGSLRLSCAASGFTFSRYEMGWFRQAPGKEREFVAAVTEDGSINYADSVKGRFTISADNSKNTAYLQMNSLKPEDTAVYYCAAVYVSTWGNGYDWGQGTLVTVSS | 93.2 ratio | 1.2 nM | 0.000176 s⁻¹ | 147000 M⁻¹ s⁻¹ |  |
| CD40L-57 (VHH) VHH: EVQLVESGGGLVQPGGSLRLSCAASGFTFSRYEMGWFRQAPGKEREFVATITEGGARNYADSVKGRFTISADNSKNTAYLQMNSLKPEDTAVYYCAAVYVSTWGNGYDWGQGTLVTVSS | 64 ratio | 2.92 nM | 0.000769 s⁻¹ | 263000 M⁻¹ s⁻¹ |  |
| CD40L-51 (VHH) VHH: EVQLVESGGGLVQPGGSLRLSCAASGYFASWYYMGWFRQAPGKEREEVATFYTGDGRTYYADSVKGRFTISADNSKNTAYLQMNSLKPEDTAVYYCAAWLNGGNRWGQGTLVTVSS | 76.6 ratio | ≤ 0.174 nM | ≤ 1e-05 s⁻¹ | 57600 M⁻¹ s⁻¹ |  |
| CD40L-55 (VHH) VHH: EVQLVESGGGLVQPGGSLRLSCAASGLPFSTLHMGWFRQAPGKEREFVAAISRSGNLKAYADSVKGRFTISADNSKNTAYLQMNSLKPEDTAVYYCAADDYLGGDNWYLGPYDWGQGTLVTVSS | 3.2 ratio | 10 nM | 0.0001 s⁻¹ | 10000 M⁻¹ s⁻¹ |  |
| IL1RL1-34 (Fc fusion, not shown: a dimerising Fc or GST, VHH-Fc on IgG2 Fc) VHH: EVQLVESGGGLVQPGGSLRLSCAASGSTFSNAVMGWFRQAPGKEREFVAVIIDSRTTKYADSVKGRFTISADNSKNTAYLQMNSLKPEDTAVYYCAAVGGATTVTASEWDWGQGTLVTVSS |  |  |  |  | 476 MFI ratio |
| CD40L-46 (VHH) VHH: EVQLVESGGGLVQPGGSLRLSCAASGFTFSRYEMGWFRQAPGKEREWVASLYLNGDYPYYADSVKGRFTISADNSKNTAYLQMNSLKPEDTAVYYCAIPHGIAGRITWGQGTLVTVSS | 45.7 ratio | 11.5 nM | 0.000576 s⁻¹ | 50200 M⁻¹ s⁻¹ |  |
| CD40L-22 (VHH) VHH: EVQLVESGGGLVQPGGSLRLSCAASGVTLDDYAMGWFRQAPGKERELVAAITNGGITTHYADSVKGRFTISADNSKNTAYLQMNSLKPEDTAVYYCAADVGPTVKWGQGTLVTVSS | 47.6 ratio | 1.02 nM | 0.000394 s⁻¹ | 387000 M⁻¹ s⁻¹ |  |
| CD40L-59 (VHH) VHH: EVQLVESGGGLVQPGGSLRLSCAASGFTLDYYAMGWFRQAPGKERELVASISNGGLSTYYADSVKGRFTISADNSKNTAYLQMNSLKPEDTAVYYCAADVGPTVKWGQGTLVTVSS | 66.7 ratio | 1.27 nM | 0.000315 s⁻¹ | 248000 M⁻¹ s⁻¹ |  |
| CD40L-29 (VHH) VHH: EVQLVESGGGLVQPGGSLRLSCAASGRTFSSYAMGWFRQAPGKEREFVAVIYSSDGSTLYADSVKGRFTISADNSKNTAYLQMNSLKPEDTAVYYCAAEHTLGRPSRSQINYLWGQGTLVTVSS | 4.7 ratio | 33.6 nM | 0.000801 s⁻¹ | 23800 M⁻¹ s⁻¹ |  |
| CD40L-38 (VHH) VHH: EVQLVESGGGLVQPGGSLRLSCAASGVTFSSYDMGWFRQAPGKEREFVAAINWSGGSRSYADSVKGRFTISADNSKNTAYLQMNSLKPEDTAVYYCAIPRFRPYEYDWGQGTLVTVSS | 49 ratio | 8.61 nM | 0.00052 s⁻¹ | 60300 M⁻¹ s⁻¹ |  |
